Measured values published in patent US5945288.

Tested on: PmeI restriction endonuclease (Pseudomonas mendocina)
Assay: cleavage_in_vitro
Details: column fractions assayed on lambda DNA

bacteriophage lambda DNA
activity (units (total purified)): 116000
